Reference: article PMC7688924, “α-Galactosidase and Sucrose-Kinase Relationships in a Bi-functional AgaSK Enzyme Produced by the Human Gut Symbiont Ruminococcus gnavus E1” (Frontiers in Microbiology, 2020)

B1: RgAga (Mediterraneibacter gnavus) (protein)
chain: AIIYNPNKKIFTLHTAHTTYQMQVDPLGYLLHLYYGEKTNSSMDYVLTYADRGFSGNPYAAGMDRTYSLDALPQEYPSLGTGDYRNIALNIKNEKGVESADLLFKSYEIRNGKYRLQGLPAVWADEKEAQTLEIVLADENAQVEVHLLYGVLEENDVITRSVRIKNTGTGQITIEKAAAACLDFVQGEFDVLRFYGKHAMERNLERTPLGHGTIAFGSRRGTSSHQYNPAVILAEKGTTETAGSCYGMLFVYSGNFSCEAEKDQFNQTRLLLGLNEELFSYPLASGETFTVPEVILSYSAEGLSALSQQYHNCIRNHVCRSKYVHMQRPVLINSWEAAYFDFTGDTIVDLAKEAASLGIDMVVMDDGWFGKRNDDNSSLGDWQVNETKLGGSLAELITRVHEQGMKFGIWIEPEMINEDSDLYRAHPDWAIRIQGKKPVRSRNQLLLDFSRKEVRDCVFDQICVVLDQGKIDYVKWDMNRSMADVYAGNLSYDYVLGVYDFMERLCSRYPDLLLEGCSGGGGRFDAGMLYYSPQIWCSDNTDAINRTRIQYGTSFFYPVSAMGAHVSAVPNHQTGRVTSFHTRGVTAMAGTFGYELNPALLSDEEKQQIREQIKTYKKYETLINEGTYWRLSDPFTDEIAAWMSVSEEQDHALVSVVRLMAEANQATVYVRLRGLKPDAVYLEEQSGRQYSGAALMHAGIPLPPFTEEYEAYQFAFTELK
B2: RgSK (Mediterraneibacter gnavus) (protein)
chain: RLYEKVQKWCDGNAENRVVISIYGGSGSGKTTLATALQQYFLNDGTECYLLSGDDYPHRIPKRNDEERMRVYKEAGEDGLRGYLGTKKEIDFDRINEVLAAFHEGKDSITLRHMGREDGEISLEETDFSGISVLLLEWTHGGSDDLHGVDLPVFLESSPGETRERRIRRNRDENAASPFICRVVELEQEKLEVQRKNAGLIVGKDGSVYEQ
notes: isolated C-terminal sucrose kinase domain, Arg-724 to Gln-935, C-terminal His6 tag, E. coli BL21(DE3), pOPINE, 23,898 Da
B3: RgAgaSK (Mediterraneibacter gnavus) (protein)
chain: MAIIYNPNKKIFTLHTAHTTYQMQVDPLGYLLHLYYGEKTNSSMDYVLTYADRGFSGNPYAAGMDRTYSLDALPQEYPSLGTGDYRNIALNIKNEKGVESADLLFKSYEIRNGKYRLQGLPAVWADEKEAQTLEIVLADENAQVEVHLLYGVLEENDVITRSVRIKNTGTGQITIEKAAAACLDFVQGEFDVLRFYGKHAMERNLERTPLGHGTIAFGSRRGTSSHQYNPAVILAEKGTTETAGSCYGMLFVYSGNFSCEAEKDQFNQTRLLLGLNEELFSYPLASGETFTVPEVILSYSAEGLSALSQQYHNCIRNHVCRSKYVHMQRPVLINSWEAAYFDFTGDTIVDLAKEAASLGIDMVVMDDGWFGKRNDDNSSLGDWQVNETKLGGSLAELITRVHEQGMKFGIWIEPEMINEDSDLYRAHPDWAIRIQGKKPVRSRNQLLLDFSRKEVRDCVFDQICVVLDQGKIDYVKWDMNRSMADVYAGNLSYDYVLGVYDFMERLCSRYPDLLLEGCSGGGGRFDAGMLYYSPQIWCSDNTDAINRTRIQYGTSFFYPVSAMGAHVSAVPNHQTGRVTSFHTRGVTAMAGTFGYELNPALLSDEEKQQIREQIKTYKKYETLINEGTYWRLSDPFTDEIAAWMSVSEEQDHALVSVVRLMAEANQATVYVRLRGLKPDAVYLEEQSGRQYSGAALMHAGIPLPPFTEEYEAYQFAFTELKEAGRLYEKVQKWCDGNAENRVVISIYGGSGSGKTTLATALQQYFLNDGTECYLLSGDDYPHRIPKRNDEERMRVYKEAGEDGLRGYLGTKKEIDFDRINEVLAAFHEGKDSITLRHMGREDGEISLEETDFSGISVLLLEWTHGGSDDLHGVDLPVFLESSPGETRERRIRRNRDENAASPFICRVVELEQEKLEVQRKNAGLIVGKDGSVYEQ
notes: full-length bifunctional enzyme (935 residues), produced in E. coli as in Bruel 2011, Ni-NTA and gel filtration, His-tag (C-terminal 6xHis given for recombinant proteins), tetramer

Legend:
purified protein = substrate: O=[N+]([O-])c1ccc(O[C@H]2O[C@H](CO)[C@H](O)[C@H](O)[C@H]2O)cc1; test: purified protein; details: McIlvaine's buffer pH 6.0, 42 °C, pNPGal 0.078-10 mM
[1] = substrate: Nc1ncnc2c1ncn2[C@@H]1O[C@H](COP(=O)(O)OP(=O)(O)OP(=O)(O)O)[C@@H](O)[C@H]1O; test: bioluminescence ATP consumption assay (luciferin/luciferase); format: biochemical, Mediterraneibacter gnavus; details: sucrose 5 mM, pH 8.0, 30 °C, ATP 0-10 mM, […] enzyme
Excerpt: bioluminescence ATP consumption assay (luciferin/luciferase) on RgSK

[2] = substrate: Nc1ncnc2c1ncn2[C@@H]1O[C@H](COP(=O)(O)OP(=O)(O)OP(=O)(O)O)[C@@H](O)[C@H]1O; test: as above; format: biochemical, Mediterraneibacter gnavus; details: sucrose 5 mM, pH 8.0, 30 °C, ATP 0-10 mM, […] enzyme; remark: listed apart in the source
Excerpt: bioluminescence ATP consumption assay (luciferin/luciferase) on […]

| Protein | Km (purified protein) [mM] | Vmax (purified protein) [µmol/min] | kcat (purified protein) [s⁻¹] | kcat/Km (purified protein) [M⁻¹ s⁻¹] | Km [1] [mM] | Vmax [1] [µmol/min] | kcat [1] [s⁻¹] | kcat/Km [1] [M⁻¹ s⁻¹] | Km [2] [mM] | Vmax [2] [µmol/min] | kcat [2] [s⁻¹] | kcat/Km [2] [M⁻¹ s⁻¹] |
| --- | --- | --- | --- | --- | --- | --- | --- | --- | --- | --- | --- | --- |
| B1 | 1.2 ± 0.2 | 0.236 | 827 | 689000 |  |  |  |  |  |  |  |  |
| B2 |  |  |  |  | 6.3 ± 1.8 | 0.0719 | 27.9 ± 4.3 | 4420 |  |  |  |  |
| B3 | 1.3 ± 0.2 | 0.179 | 626 | 481000 |  |  |  |  | 8.4 ± 1.9 | 0.0983 | 38.1 ± 4.8 | 4530 |
